Legend:
recombinant human TNFα [1] = molecular target: T1, recombinant human TNFα (human, UniProt P01375 77-233, 125I label in the receptor-blocking assay); test: inhibition of 125I-TNFα binding to plate-coated p55-sf2
T1 construct: also called huTNFα; tumor necrosis factor alpha
Protocol: 50:1 of p55-sf2 at 0.5 :g/ml in PBS was added to Optiplates to coat the wells during a one-hour incubation at 37° C. Serial dilutions of the eight TNV cell supernatants were prepared in 96-well round-bottom plates using PBS/0.1% BSA as diluent. […] The mixture was preincubated for one hour at RT. […] After 2 hrs at RT, Optiplates were washed three times with PBS-Tween. 100 :l of Microscint-20 was added and the cpm bound determined using the TopCount gamma counter.
The concentrations of the TNV mAbs in their respective cell supernatants were first determined by standard ELISA analysis for human IgG.

recombinant human TNFα [2] = molecular target: T1, recombinant human TNFα; test: cell-based or functional assay
recombinant human TNFα [3] = molecular target: T1, recombinant human TNFα; test: competition radioligand assay: hybridoma supernatant preincubated with 125I-TNFα (5 ng/ml); binding of TNFα to plate-coated p55-sf2 read as cpm bound

Binder | fold better at blocking TNF binding than TNV118 and TNV14 (recombinant human TNFα [1]) [fold] | neutralizing TNFα bioactivity (recombinant human TNFα [2]) [fold] | IC50 (read off the curve) (recombinant human TNFα [3]) [ng/mL]
GenTNV148.26.12 (antibody, V domains shown) VH: QVQLVESGGGVVQPGRSLRLSCAASGFIFSSYAMHWVRQAPGNGLEWVAFMSYDGSNKKYADSVKGRFTISRDNPKNTLYLQMNSLRAEDTAVYYCARDRGIAAGGNYYYYGMDVWGQGTTVTVSS VL: EIVLTQSPATLSLSPGERATLSCRASQSVYSYLAWYQQKPGQAPRLLIYDASNRATGIPARFSGSGSGTDFTLTISSLEPEDFAVYYCQQRSNWPPFTFGPGTKVDIKR | ~4 | 4 | ~4
GenTNV86.14.34 (antibody, human IgG1, V domains shown, Totally human IgG1 kappa, hybridoma-derived, tested in cell supernatant; Variable regions identical to TNV148; also called C417A (cell line code)) VH: QVQLVESGGGVVQPGRSLRLSCAASGFIFSSYAMHWVRQAPGNGLEWVAFMSYDGSNKKYADSVKGRFTISRDNPKNTLYLQMNSLRAEDTAVYYCARDRGIAAGGNYYYYGMDVWGQGTTVTVSS VL: EIVLTQSPATLSLSPGERATLSCRASQSVYSYLAWYQQKPGQAPRLLIYDASNRATGIPARFSGSGSGTDFTLTISSLEPEDFAVYYCQQRSNWPPFTFGPGTKVDIK | ~4 | – | –
